Reference: the supplement of paper PMC12636428

Tested on: Saccharomyces cerevisiae
Assay: transcriptional activation domain activity (GFP:mCherry ratio, weighted mean of sorted bins, harmonized to initial dataset scale) (arbitrary fluorescence ratio units); higher = stronger transcriptional activation
Conditions: beta-estradiol 1 µM; induction time 4 h
Outline: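 In diploid yeast carrying a GFP reporter, barcoded protein tiles fused to an estradiol-inducible synthetic transcription factor were integrated at the URA3 locus. Cultures diluted 1:5 into SC with 1 uM beta-estradiol were kept at 30 °C for 4 hours, then sorted by GFP:mCherry ratio into 8 bins before barcode sequencing. Tiles with under 50 reads were excluded. The activation activity reported here is the read-weighted mean of bin median fluorescence, averaged across barcodes and linearly rescaled to the initial dataset.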

Sequence	transcriptional activation domain activity
KNNDATIDNELTQILNEYNMNFNDNLGTSTSGKNKSACPSSFDANAMTKINPS	51800
KNNLWYLPLYLFYLSRVTPAATVVPVFLFFFIFFYFFIFIFYLFLFYLSFSIF	49900
KNNNREVEVEAREPHHKGRKNNKREVGEVEARDPHHKGRKNNKREVEVEAREP	52900
KPAGIMMFYFPCLYGTFLVGCLGHEINILSMAIANAKLFLLSFLMRGMLCTWN	43200
KPATTTASSAQPSTTASATPGGLFGGGAQSGSSTPAGGLFGAKPAAAPSPAPA	44900
KPDLYLDILKIIAYSLDDVKFRACQVLFHYYFVSLGHVVVAEALPKLGVTVEI	36400
KPEPAGEKAEVANGEGAPEGNRRRPSGRGRGRGRGGRGARGGRDAKEEGAEEA	51900
KPEPAGEKGEGAASGGEGQSGGEGGRRRPSGRGRGRGRGRGGRGGRANRGSRG	38800
KPESKEKEEEEEETETETETETKPEAKEEPKEEPKEEVNNEKEAEDAAAAEAK	27200
KPHGKQAAESTRGQSTTGTNSTTSNSSRASGSRRQETDRGKEGKSNKASSSSG	21900
KPHHKWIIPTPFASHAFHPVDGYLQSVPYHLFIFLFPMHQYVYLGLFVAVNFW	72400
KPHHKWIVPTPFASHAFHPVDGYFQSLPYHIFIFVFPMQRHLYLALFVAVNCW	41800
KPHHKWIVPTPFSSHAFHPVDGYAQSVPYHLFVFIFPMQRHLYLFLFVAVNFW	44100
KPKAAAKAAKPAKKAAPEKAEKPEKPEKAKEVEKPEKPEKVSKPAAKKAAPVA	25000
KPKPKPKQYPKVILPSNSTRRVSPVTAKTSSSAEGVVVASESPVIAPHGSSHS	47200
KPKRKERSDKGKKRGPRAKDGTGTKAAENTLVAKAKPAAKGQEKRRGKADDAK	16700
KPKVKKDADDDAMDVDEEEKPKPKPKPRPKPKATSSPKEGEEDEPAKKKLKTS	51400
KPLGRQELQRFVALLHSHLETQILEYMHTRRKLSDVVLFLRRTLATCLLLYGC	38100
KPLSIILGLVNVFVLYNYLSTGVSLWMISLRFSSFSCRFLADVFSCLLVFLLC	60600
KPLSKRAAPKKAPAKRKSSAGSKSKETSAEPPKKRPAKAKAKPKKEATPASSP	41900
KPPCVWCRAVGTAASMLSNLLANGLLAFQCHMGWSIVYIAALLCIIYATTLSL	38300

Sequence	transcriptional activation domain activity
KPTNQTEFDWQVFQQQAFLQQQLAQHNLQAYLSSLNTDTMTNRSPSKSSSIST	66300
KQAAEEGDRPKQGGKESGEKENGKAEGSQAREKDRPADGEGKSSDEAGKAKDE	12500
KQGQEVEFKPERGVGDLVLKVTGRKRGYRAEERRSNSLRAQLVISHAVPLAVT	60200
KQLAKKTESFSGSDLKHLCVSAALDAVKERVTVPWRHSTTSAPSSSAPAEAQP	19000
KQPEPRTRSASPKRAASPAKPVAAEKPAAVAAAAEKPAEKVAEKAAEKPAPAV	31400
KQPKKKAAAKKAQAPKKGKKRAADDDEEEEGEEDVKPKARGKGKGKAATGKGR	42300
KQRKAELIHHVVPLAVAAAFSIFLSGEDLEGPRIYHSMASLKVLRRLVAVISS	54400
KQSWSYFYKVLQGLLMDLFFIITIPIYFYYYLPNWNPPLWTLLDFTTLESLNF	69000
KQTAAQDSDEEGGGGKLKSKKEKEKEKKEREKQRKKEQAAKKKTAAPAPAKPE	24400
KQTRAGQRTRFRAVVIVGDSNGHVGLGVKTSKEVATAIRAAIVIAKLNVIPVR	64200
KQYCVRPNSGRIDPGKEVEVQVLLQAMKEDPPLDAKCRDKFLVQSVAVSADKE	64500
KQYCVRPNSGRIEAGKDVEVQVLLQAMKEDPPQGYKCRDKFLVQSVAITADRE	21700
KQYCVRPNSGRIEAGKEVEVQVLLQAMKEDPPADAKCRDKFLVQSVAISADKE	17800
KQYCVRPNSGRIEAGKEVEVQVLLQAMKEDPPPDARCRDKFLVQSVAVTADQE	37200
KQYCVRPNSGRIEGGGEVEVQVLLQAMKEDPPLDAKCKDKFLVQSVAVAADRE	46900
KQYCVRPNSGRIEPGGEVDVQILLQAMKEDPPADAKCRDKFLVQSVLVTADKE	50100
KQYCVRPNSGRIEPGKDVEVQILLQAMKEDPPLDAKCRDKFLVQSVAVSADKE	40700
KQYCVRPNSGRIEPGKDVEVQILLQAMKEDPPMDAKCRDKFLVQSVAVTADKE	59200
KQYCVRPNSGRIEPGKDVEVQILLQAMKEDPPPDAKCRDKFLVQSVAVSADKE	47000
KQYCVRPNSGRIEPGKDVEVQVLLQAMKEDPAPDAKCRDKFLVQSVAVTADKE	44600
KQYCVRPNSGRIEPGKDVEVQVLLQAMKEDPPLDAKCRDKFLVQSVAVTADKE	24900

Sequence	transcriptional activation domain activity
KQYCVRPNSGRIEPGKEVDVQVLLQAMKEDPPLDAKCRDKFLVQSVAVTADKE	27100
KQYCVRPNSGRIEPGKEVEVQVILQAMKQEPPPDTKCRDKFLVQAVAIAADKE	29700
KQYCVRPNSGRIEPGKEVEVQVLLQAMREDPPPDARCRDKFLVQSVAMTGENE	29400
KQYCVRPNSGRIEPGKEVEVTVLLQAMKQEPPIDAKCRDKFLVQSVAVTADKE	51300
KQYCVRPNSGRIEPGKSVEVTVLLQAMKAEPPMDAKCRDKFLVQSVAVTADKE	33600
KQYCVRPNSGRIEPGKSVEVTVLLQAMKQEPPMDAKCRDKFLVQSVAVTADKE	31600
KQYCVRPNSGRIEPGRDVEVQVLLQAMREDPPPDAKCRDKFLVQSVAVTADKE	44900
KQYCVRPNSGRIEPGREVEVSVLLQAMKQEPAPDARCRDKFLVQSVTITSDQE	20500
KQYCVRPNSGRIEPGSDVEVQILLQAMKEDPPLEAKCRDKFLVQSVAVSADKE	45400
KQYCVRPNSGRIESGKEVEVQVLLQAMKNDPPADYKCRDKFLVQSVAITADRE	53400
KQYCVRPNSGRIEVGSEVEVQVLLQAMREDPPPDARCRDKFLVQSVAITPERD	42800
KRCFSLFFFFFFSFLPFLFLFLSPYCLLNTFVPFSFSFLIYLILLLKFNLSAE	48900
KREDIVRVVNGIFCCYILTFSLFFLFFLVYPSLCFLCLFPLCGVLSFFYLYFP	20900
KREQREKEKEAEREREREKAARAARRESRREERTRREDEKERGARHEERTSRY	28000
KRGEGEAGKESGRQRRSGSAGERAGRRGEGSKEGAEGESEASREKGNKRNDEE	32800
KRGRPAKKAQEEVEVEEAAPAKRGRKAVAKEEPAKKETKAKPTTKSRGTKRAA	38600
KRHAKRRRDKRKQKEKKNSKRDESSSASDSDRRSQSSSRRSRSSSAGSKRSTR	17400
KRHLPWPWNGERLIFILQDVWVPNFNEHHLLWTLDLKRKGLTFIALTNVWGIY	50300
KRKACLVCDLICTLLLQGLVSNEELRIDYSHRRCDLWRRQRWIGFVTPLSILE	36400
KRKDAAKKKSEREWKDRVKGVEKAGRDRQKRREENIRKRKEEKGRGKGKKGKG	6830
KRKDGNGGAGREMKRGERDASPAKGKGASAARGRGGRGRGGRRGGSRGGKKRG	32600

Sequence	transcriptional activation domain activity
KRKPRRPVRVDKDPEEEEEEDKEEEEEEEEDPRGKEKKKAKPKRKAKAKAAED	21400
KRNKPNACGGCGAESDENGGALMMCSRCKDRKYCGAECQKTHWKVHKKVCEVA	58500
KRPRKKKQQKAAAEEAAEPAGSGDEAAAPPEPKKRRKGKLRKEGDKNGNAAPA	28500
KRPTSHTLRPFFYFLLAVIYTVAHALVMIYQMISLNVAVNSYDNALLTLLVSN	52200
KRQKSRKGSESDAESEGEGDRGGARAYGKSRPQGRSADARADRKSAKGARAPQ	34200
KRREKRKKRKQRDQGRKKTKKDGVGEPSNEGGEDDNGESGKDDDDQGKESDKD	29600
KRRGDQGKEQDRKGGEGGEEERGNGARGGGSARKEGDKGGEQKEGGRQRERAG	41700
KRRRWQLALLLLFWFAWLATFITVIHNSRFVSKVNGQDPYLLSCTSVLWSKNN	47100
KRSKSPDSRHSSSRKRSRSRERKHKSSRKRSKSREGKIKKSKSEKHRSHKHKR	46300
KRSRKHSSREDVGEEGEDRRSEHRERKKEKEREKDKEKDKDRSRSRHKRSRSD	53600
KRVKKEETVEKKPAVETEAPKKRGRKAAVSASAEEPKAAPAKRSRRKVSATAA	13300
KSDAAAQVPSRGQKRDRDGDEEGSDAEAGVPGTPIRSSRKTKKRGKKSKEPRE	50200
KSDVEADRQRLIYSGKVLKDDDILSSCKIQSGHTVHMVKGAARAAAASSSSAP	58300
KSEKPEKERKHRDKGEREHRDRSEREHKVREPKEPREKGEKEKRHKTAEEKAG	16900
KSGCGYILGHINIFQPINWILVTSSKVFPIDYILFLLLVMFFFSASIVGIATV	34400
KSGRGGGRKGGRGGGKASARGGAGGARGGGGGGRGGGGAHTERGRTGKGAGAS	21800
KSKAANAKGKKKGKKGKKNKKGKKGKKAKNAKKAKAVKVAKAPVAKAPAPAAK	17700
KSKKKRRMEEEEEGDEEEEEEQREREEERGERGEREARVRREGKAKKSASSRD	17300
KSKKKRRSKRKPKNQKKKTTGKDAQEHLDDEQTRNLEDGQDDKKDEQDDDNKK	31400
KSKKRKTGEQSDEDAVAAKKRKKSAGKKVAGEEKPKKARKSQAPAEAAGGRKS	16500
